B1: NaKΔ18 (domain or fragment, B. cereus)
chain: WKDKEFQVLFVLTILTLISGTIFYSTVEGLRPIDALYFSVVTLTTVGDGNFSPQTDFGKIFTILYIFIGIGLVFGFIHKLAVNVQLPSILSNRKKE
B2: NaKΔ18 L35A (domain or fragment, B. cereus, UniProt Q81HW2 19-114, looked up)
chain: WKDKEFQVLFVLTILTAISGTIFYSTVEGLRPIDALYFSVVTLTTVGDGNFSPQTDFGKIFTILYIFIGIGLVFGFIHKLAVNVQLPSILSNRKKE
B3: NaKΔ18 L61A (domain or fragment, B. cereus, UniProt Q81HW2 19-114, looked up)
chain: WKDKEFQVLFVLTILTLISGTIFYSTVEGLRPIDALYFSVVTATTVGDGNFSPQTDFGKIFTILYIFIGIGLVFGFIHKLAVNVQLPSILSNRKKE
B4: NaKΔ18 L35A+L61A (domain or fragment, B. cereus, UniProt Q81HW2 19-114, looked up)
chain: WKDKEFQVLFVLTILTAISGTIFYSTVEGLRPIDALYFSVVTATTVGDGNFSPQTDFGKIFTILYIFIGIGLVFGFIHKLAVNVQLPSILSNRKKE
B5: NaKΔ18 L61T (domain or fragment, B. cereus, UniProt Q81HW2 19-114, looked up)
chain: WKDKEFQVLFVLTILTLISGTIFYSTVEGLRPIDALYFSVVTTTTVGDGNFSPQTDFGKIFTILYIFIGIGLVFGFIHKLAVNVQLPSILSNRKKE

Target: the molecule itself
Experiment: SEC

Stoichiometry N, 4:
B1
B2
B3
B4
B5
